Measured values from paper PMC5833700, “MIF inhibits the formation and toxicity of misfolded SOD1 amyloid aggregates: implications for familial ALS” (Cell Death & Disease, 2018).

Columns and labels:
[1] = target: T1, poly-histidine tagged apo-SOD1^WT (human, UniProt P00441 1-154); assay: SPR; ProteOn XPR36; poly-histidine tagged apo-SOD1^WT (1 µg, 736 RU) immobilised on tris-NTA HTG chip; MIF as analyte, 31-1000 nM, 25 µl/min; PBST (PBS 300 mM NaCl, 0.05% Tween-20); 25 °C; HTB1 channel subtracted; apparent affinity from steady-state values; conditions: both partners purified
T1 construct: Cu/Zn superoxide dismutase (SOD1), human, wild type, codon-optimised, in the pHIS1 vector; Apo form; It was captured on the tris-NTA chip by its His tag; also called Cu/Zn superoxide dismutase; source: E. coli BL21, purified (HisTrap FF); not shown: His6, N-terminal, kept

[2] = target: the molecule itself; assay: SDS-PAGE without prior crosslinking; 10 µM recombinant MIF, non-crosslinked control; sample buffer without β-mercaptoethanol; 13% SDS-PAGE and anti-MIF immunoblot

T1 sequence (P00441 whole entry): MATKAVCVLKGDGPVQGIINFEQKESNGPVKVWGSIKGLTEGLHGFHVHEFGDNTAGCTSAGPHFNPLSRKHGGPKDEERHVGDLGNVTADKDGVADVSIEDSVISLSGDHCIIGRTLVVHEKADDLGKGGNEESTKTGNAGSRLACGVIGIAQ

Binder | Kd [1] [nM] | stoichiometry N [2]
macrophage migration inhibitory factor, wild type (MIF^WT) (natural protein, human, UniProt P14174 1-115, looked up, No tag is mentioned; Surmise: the initiator methionine is removed in E. coli, since tautomerase activity was measured; also called recombinant MIF; hMIF; source: E. coli BL21 (DE3), purified (Capto Q anion exchange, Capto S cation exchange)) MPMFIVNTNVPRASVPDGFLSELTQQLAQATGKPPQYIAVHVVPDQLMAFGGSSEPCALCSLHSIGKIGGAQNRSYSKLLCGLLAERLRISPDRVYINYYDMNAANVGWNNSTFA | 1300 | –
locked-trimeric MIF mutant MIF^N110C (natural protein, disulfide bridge of the introduced cysteine (N110C) with Cys-81 of an adjacent subunit) PMFIVNTNVPRASVPDGFLSELTQQLAQATGKPPQYIAVHVVPDQLMAFGGSSEPCALCSLHSIGKIGGAQNRSYSKLLCGLLAERLRISPDRVYINYYDMNAANVGWNCSTFA | 548 | 3
